Experiment [1] deals with human CLDN6 fused to GFP, expressed on engineered HEK293T cells (human) (UniProt P56747). The experiment is described as follows: FACS on 293T CLDN6 mGFP Clone A11 cells, scFv followed by secondary antibody; number from the data table under the bars.
Experiment [2] has the same target. The experiment is described as follows: FACS, 293T clone with human CLDN6, 1.5 ug Ab. A general note: In flow cytometry, cells or beads pass a laser one at a time.
Experiment [3] shares this target. The experiment is described as follows: FACS, 293T clone with human CLDN6, 0.3 ug Ab.
Experiment [4] has as its target T1, mouse CLDN6 fused to GFP, expressed on engineered HEK293T cells (mouse) (UniProt Q9Z262).
T1 sequence (looked up): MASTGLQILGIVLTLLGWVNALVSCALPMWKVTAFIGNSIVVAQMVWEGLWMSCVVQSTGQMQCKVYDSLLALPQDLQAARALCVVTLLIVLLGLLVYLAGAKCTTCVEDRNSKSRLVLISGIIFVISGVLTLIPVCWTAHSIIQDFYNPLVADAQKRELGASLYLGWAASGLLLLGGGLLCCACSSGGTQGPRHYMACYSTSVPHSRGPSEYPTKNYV
The experiment is described as follows: FACS, 293T clone with mouse CLDN6.

B1: AB1-11 scFv (scFv)
scFv: DIQLTQSPSSLSASVGDRVTMTCTASSSVSSTYFHWYQQKPGKAPKLWIYSTSNLASGVPSRFSGSGSGTDYTLTISSMQPEDAATYYCHQYHRSPLTFGQGTKLEIKGGGGSGGGGSGGGGSQVQLVQSGAEVKKPGASVKMSCKASGYTFTTYTMHWVRQAPGQGLEWIGFINPSSGYTDYAQKFQGRVTLTADKSTSTVYMELSSLRSEDTAVYYCANGDYYVAYWGQGTLVTVSS
Turning to B1, the FL4H Singlets in Viable cells in experiment [1] stood at 125000.

B2: AB4-chim (antibody, V domains shown)
VH: QVQLQQSGAELARPGASVKMSCKASGYTFTSYTMHWIKQRPGQGQEWIGYINPSSTYTHYIKKFKDKATLTADKSSSTAYMQLRSLTSEDSAVYYCSRGELGGFAYWGQGTLVTVSA
VL: DVVMTQTPLSLPVSLGDQASISCRSSQSLVHSDGNTYLNWYLQKPGQSPKLLIYKVSNRFSGVPDRFSGSGSGTDFTLKIRRVEAEDLGVYFCSQSTHVPYTFGGGTKLEIK
For B2, the FACS signal in experiment [2] came to 327000; in experiment [3] it was 176000; in experiment [4] it was 3640.

B3: AB3-7 scFv (scFv)
scFv: DIQMTQSPSSLSASVGDRVTITCRISENIYSYLAWYQQKPGKAPKLLVYNAKILVEGVPSRFSGSGSGTDFTLTISSLQPEDFGTYYCQHHYTVPWTFGQGTKLEIKGGGGSGGGGSGGGGSEVQLLESGGGLVQPGGSMRLSCAASGFTFSNYWMNWVRQAPGKGLEWVAQIRLKSDNYATHYADSVKGRFTISRDDSKNTVYLQMNSLRAEDTGVYYCNDGPPSGSWGQGTLLTVSS
B3: the FL4H Singlets in Viable cells in experiment [1] was 132000.

(Values after patent US20220177583A1.)
